In the RNAGym collection of RNA variant scans (doi:10.1073/pnas.2313332121):
Fewer inactive variants are shown than the library holds.

B1: TPR 5TU (parent)
chain: GGAUCUUCUCGAUCUAACAAAAAAGACAAAUCUGCCACAAAGCUUGAGAGCAUCUUCGGAUGCAGAGGCGGCAGCCUUCGGUGGCGCGAUAGCGCCAACGUUCUCAACUAUGACACGCAAAACGCGUGCUCCGUUGAAUGGAGUUUAUCAUG

Variants of: B1
Experiment: polymerase ribozyme fitness, log enrichment relative to wild type (log ratio); higher = more active; in vitro selection for triplet polymerase activity
How it was run: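 A heterodimeric triplet polymerase ribozyme had each of its subunits mutagenized by PCR into a library, which was transcribed. One round of in vitro selection, done in triplicate, annealed each library with a biotinylated primer, its partner subunit and triplets, then incubated it frozen at −7 °C before gel excision of extended constructs, streptavidin-bead capture and RT-PCR. Fitness is the logarithm of genotype enrichment relative to wild-type enrichment, based on Illumina sequencing of inputs and outputs and inverse-variance-weighted replicate averages. A base-2 logarithm is used, and genotypes were kept only with ≥10 input reads and ≥1 read per output.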

Variant	polymerase ribozyme fitness (log ratio)
GGAUCUUCUCGAUCUAACAAAAAAGACAAAUCUGCCACAAAGCUUGAGAGCAUCUUCGGAUGCAGAGGCGGCAGCCUUCGGUGUCGCGAUAGCGCCAACGUUCUCAACUAUGACACGUAAAACGCGUGCUCCGUUGAAUGGAGUUUAUCAUG [G84U C118U]	-1.91
GGAUCUUCUCGAUCUAACAAAAAAGACAAAUCUGCCACAAAGCUUGAGAGCAUCUUCGGAUGCAGAGGCGGCAGCCUUCGGUGUCACGAAAGCGCCAACAUUCUCAACUAUGACACGCAAAACGCGUGCUCCGUUGAAUGGAGUUUAUCAUG [G84U G86A U90A G100A]	≤ -4.2
GGAUCUUCUCGAUCUAACAAAAAAGACAAAUCUGCCACAAAGCUUGAGAGCAUCUUCGGAUGCAGAGGCGGCAGCCUUCGGUGGAGCGAUAGCGCCAACGUUCUCAACUAUGACACGCAAAACGCGUGUUCCGUUGAAUGGAGUUUAUCAUG [C85A C129U]	-0.397
GGAUCUUCUCGAUCUAACAAAAAAGACAAAUCUGCCACAAAGCUUGAGAGCAUCUUCGGAUGCAGAGGCGGCAGCCUUCGGUGUCGCGAUAGCGCCAACGUUCUCAACUAUGACACGCAAAACGCGGGCUCCGUUGAAUGGAGUUUAUCAUG [G84U U127G]	-3.43
GGAUCUUCUCGAUCUAACAAAAAAGACAAAUCUGCCACAAAGCUUGAGAGCAUCUUCGGAUGCAGAGGCGGCAGCCUUCGGUGGAGCGAUAGCGCCUACGUUCUCAACUAUGACACGCAAAACGCGUGCUCCGUUGAAUGGAGUUUAUCAUA [C85A A97U G152A]	≤ -4.2
GGAUCUUCUCGAUCUAACAAAAAAGACAAAUCUGCCACAAAGCUUGAGAGCAUCUUCGGAUGCAGAGGCGGCAGCCUUCGGUGUCGCGAUAGCGCCAACGUUCUCAACUAUGACACGCAAAACGCGUGCUCCGUUGAAUGGAGGUUAUCAUG [G84U U144G]	-0.698
GGAUCUUCUCGAUCUAACAAAAAAGACAAAUCUGCCACAAAGCUUGAGAGCAUCUUCGGAUGCAGAGGCGGCAGCCUUCGGUGGAGCGAUAGCGCCAACGUUAUCAACUAUGACACGCAAAACGCGUGCUCCGUUGAAUGGAGUUUGUCAUG [C85A C103A A147G]	≤ -4.2
GGAUCUUCUCGAUCUAACAAAAAAGACAAAUCUGCCACAAAGCUUGAGAGCAUCUUCGGAUGCAGAGGCGGCAGCCUUCGGUGGAGCGAUAGCGCCAACGUUCUCAACUAUGACAGGCAAAACGCGUGCUCCGUUGAAUGGAGUUUAUCAUG [C85A C116G]	-0.2
GGAUCUUCUCGAUCUAACAAAAAAGACAAAUCUGCCACAAAGCUUGAGAGCAUCUUCGGAUGCAGAGGCGGCAGCCUUCGGUGGAGCGAUAGCGCCAACGUUCUCAACUAUGACACGCAAUACGCGCGCUCCGUUGAAUGGAGUUUAUCAUG [C85A A121U U127C]	-1.47
GGAUCUUCUCGAUCUAACAAAAAAGACAAAUCUGCCACAAAGCUUGAGAGCAUCUUCGGAUGCAGAGGCGGCAGCCUUCGGUGUCGCGAUAGCGCCAACGUUUUCAACUAUGACACGCAAAACGCGUGCUCCGUUGAAUGGAGUUUAUCAUG [G84U C103U]	-1.74
GGAUCUUCUCGAUCUAACAAAAAAGACAAAUCUGCCACAAAGCUUGAGAGCAUCUUCGGAUGCAGAGGCGGCAGCCUUCGGUGUCGCGAUAGCGCUAACGUUCUCAACUAUGACACGCAAAGCGCGUGCUCCGUUGAAUGGAGUUUAUGAUG [G84U C96U A122G C149G]	≤ -4.2
GGAUCUUCUCGAUCUAACAAAAAAGACAAAUCUGCCACAAAGCUUGAGAGCAUCUUCGGAUGCAGAGGCGGCAGCCUUCGGUGUCGCGAUAGCGCCAACGUUCGCAACUAUGACCCGCAAAACGCGUGCUCCGUUGAAUGGAGUUUAUCAUG [G84U U104G A115C]	-3.36
GGAUCUUCUCGAUCUAACAAAAAAGACAAAUCUGCCACAAAGCUUGAGAGCAUCUUCGGAUGCAGAGGCGGCAGCCUUCGGUGGAGCGAUAGCGCCAACGUUCUCAACUAUGACCCGCAAAACGCGUGCUCCGUUGAAUGGAGUUUAUCAUG [C85A A115C]	-1.64
GGAUCUUCUCGAUCUAACAAAAAAGACAAAUCUGCCACAAAGCUUGAGAGCAUCUUCGGAUGCAGAGGCGGCAGCCUUCGGUGGAGCGAUAGCGCCAACGUUAUCAACUAUGACACGCAAAACGCGUGCUCCGUUGAAUGGAGUUUAUUAUG [C85A C103A C149U]	-3.27
GGAUCUUCUCGAUCUAACAAAAAAGACAAAUCUGCCACAAAGCUUGAGAGCAUCUUCGGAUGCAGAGGCGGCAGCCUUCGGUGGAGCGAUAGCGCCAACGUUCUCAACUAUGACACGUAAAACGCGUGCUCCGUUGAAUGGAGUUUAUCAUG [C85A C118U]	-0.342
GGAUCUUCUCGAUCUAACAAAAAAGACAAAUCUGCCACAAAGCUUGAGAGCAUCUUCGGAUGCAGAGGCGGCAGCCUUCGGUGGAGCGAUAGCGCCAACGUUCUCAACUAUGACACGGAAAACGCGUGCUCCGUUGAAUGGAGUUUAUCAUG [C85A C118G]	-0.907
GGAUCUUCUCGAUCUAACAAAAAAGACAAAUCUGCCACAAAGCUUGAGAGCAUCUUCGGAUGCAGAGGCGGCAGCCUUCGGUGGAGCGAUAGCGCCAACGUUCUCAACUAUGACACGCACUACGCGUGCCCCGUUGAAUGGAGUUUAUCAGG [C85A A120C A121U U130C U151G]	≤ -4.2
GGAUCUUCUCGAUCUAACAAAAAAGACAAAUCUGCCACAAAGCUUGAGAGCAUCUUCGGAUGCAGAGGCGGCAGCCUUCGGUGGAGUGAUAGCGCCAACGUUCUCAACUAUGACACGCAAAACGCGUGCUCCGUUGAAUGGAGUUUAUCAUG [C85A C87U]	≤ -4.2
GGAUCUUCUCGAUCUAACAAAAAAGACAAAUCUGCCACAAAGCUUGAGAGCAUCUUCGGAUGCAGAGGCGGCAGCCUUCGGUGUCGCGAUAGCGCCAACGUUCUCAACUAUGACACGCAAAACCCGUGCUCCGUUGAAUUGAGUUCAUCAUG [G84U G124C G140U U146C]	≤ -4.2
